Assay: soluble on expression in E. coli; label from the status in PepcDB or PDB records
With “MSLDVPLAQTVVWETHVGDFSNDPAGGFPESHRGKYLAFTDDGTSLEGHPDFPTGLAYLKKLGVTAVQLMPIYDFGSVDETTCDRYNWGYDPINYNVPEGSYSTNPFDGTTRIREVKQMVQALHSAGIKVIMDVVYNHMFSTDNWFERTVPKYFLRRKPNGALANGSGCGCDMATERKMFRRFIVESVTFWAREYHMDGFRFDLMGLIDVDTMNAVRAALNEIPGRGRDILMYGEPWSAGASAPLPADTLLAGKQGLAQLDDRIGHFCDTTRDTIKGHVFYSDRPGYVNGGMHANAVAVREAVDAWRHSDRPEGVAGQVIQYVSAHDDLTLWDKLCASLAASSLGSAVAEGDEENTVDVPKTLHDADFSEQGLDAVGPEMAQALHDVLGANRLSAGIVLTSAGIPFMLSGEEFARTKYGNSDSYDSTKELNWLDWNRAWHMRDLIGFYAKLIALRKSDARWFDGNRKIVDTEGDELVFRVGDYLVAVNPSDRTGVVDVAAAAVEGDSGEMHRYWCCLGVSGRGGGVSTGGGDDDYLIMPAHTFAIWRLQEGHHHHHH” the “soluble on expression in E. coli” value was “not soluble”. For “MSLNQASLERNELHNTIWKVANELRGSVDGWDFKQYVLGILFYRYISENMTHYINKEERKRDPSFDYAKLSDEKAERGRKHLIEQKGFFIPPSALFCNALKNACHNEDLNVTLQNIFNEIEKSSLGTPSEENVKGLFADLDVNSNKLGSSHQNRVEKLTKILEAIGGMQLGDYLKSGIDVFGDAYEYLMAMYASNAGKSGGEFFTPQEVSELLAKITLHGQESVNKVYDPCCGSGSLLLQFSKVLGDKNVSKGYFGQEINLTTYNLCRINMFLHDINYSKFHIAHGDTLLDPKHEDDEPFDAIVSNPPYSTKWVGDSNPILINDERFSPAGVLAPKNAADLAFTMHMLSYLSNSGTAAIVEFPGVLYRGNAEAKIREYLVKENVIDCVIALPDNLFFGTSIATCILVLKKNEGHHHHHH”, the “soluble on expression in E. coli” value was “not soluble”. With “SISTARVPADKPVRIAFSLNDASDDTPPEDSIPLVFPELDQQLQPLPPCHDSEESMEVFKQHCQIAEEYHEVKKEITLLEQRKKELIAKLDQAEKEKVDAAELVREFEALTEENRTLRLAQSQCVEQLEKLRIQYQKRQGSS” the “soluble on expression in E. coli” value was “soluble”. With “MGSDKIHHHHHHMIRILMGSYGSGKTEISINLALKLKSSGKDVSLVDLDVVTPYFRLRDLKKKLEELGIHVVTVGDNLRYSDLPIIPKNTDWLSSEEAVIDTGGEDGAKAVGALRHLMNGKNTHTYFVVNAFRPFCERPEDIIENLKKISTLSKMKIDFLINNSNLGDMTTAEVVLEGERIVSEVSRKTGIKVLFTVVPEELIDPPETDYPLFSIRRFMKRKLGIGGMRT” the “soluble on expression in E. coli” value was “not soluble”. With “MGSDKIHHHHHHMKIAIASGKGGTGKTTVAVNFAQVLAAAGQEVTLLDCDVEEPNVHLFLHPEFDSVSAVETTIPQVDEEKCTGCRVCAEVCEYHALAVLGKNVLVFPELCHACGACVRFCPEEAIVEIPREIGTIRKGRKGKIRLIEGRLNVGEVMSPAVIERVKKIGLDGKIGIIDAPPGTSCPVIAAVRDTDGVLLVTEPTPFGLYDLKLAVGMVRLLGIPCAVAINRSDLGEKELWRYCSDERIPIILEIPNDRRIAEAYSRGRTIIEELPEYREKFLQGWQALLESCSIA” the “soluble on expression in E. coli” value was “not soluble”. With “MNLEHHSNHYQPTCSIEALQARAKLYQTIRTFFAERGVLEVETPIISQAGVTDVHLASVKALRHIEGKERTQYLQTSPEFAMKRLLASGSGPIYQLCKVFRDDEHGRKHNSEFTMLEWYRPEFDLKDLMHETADLLETCLKQRFDEIRPMILSYKHAFQDRLEINPLQATLKQLKDTADRVGLNLDLGNDRLAYIDLLFSHIVEPSLGFDTPVFLTDFPPEMASLAKVRIDEDGEEVAARFEVYIEGLELANAYDELLDANILRARFEADNLERKLQGLAEMPLDENLLAALPHMPACAGIALGVDRLLMIATRQLKIEQVIAFPAAIA” the “soluble on expression in E. coli” value was “not soluble”. For “MERMRSIWKGSIAFGLVNVPVKVYSATEDHDIRFHQVHAKDGGRIKYNRVCSECGNVVQYADIDKAYDSDDGVRVVLTDDDFGKLPAAEKHEIPVLQFVPTEQIDPILFEKSYFLEPDSSSPKAYVLLATALENSDRTALVHFTLRQRTRLAAMRSRDGVLVIQTLLWPDEVRVAEFSSLDGVDK”, the “soluble on expression in E. coli” value was “not soluble”. For “MNHSRTIPVVNIAGPGSQPEEEDFNFLPIPAGINLPLTPVLPEQALPAELRVARHILTTLIRDMDNPVATLPFPLSYKLNATEQQNSGLLDQLLGEGEISARVLLSDGKEQRIQETVFTGVWRVREYNADQQRVADEIIIGPIPESIWQTHPQPPITPELPPQPAGLMNGAFIAHEIAERVKQPVKEPHIINLTLLPVNDADREYLDHFLGEGCSAIFSRGYGKCRIVSTHFPGVWRVNYFNDMNTLLQDMIEIADIPDIAVAGIDDIEDAYAGLKNTLEWLKEYPVTENEPVVRMECKVCWWVYDPALGDDVWQIPPGVPFNQLPDYWCCPVCETSKSGFMVIDEGNSSCKD”, the “soluble on expression in E. coli” value was “not soluble”. For “MGSSHHHHHHSSGLEVLFQGPLHMRTQGIKPRIREILSKELPEELVKLLPKRWVRIGDVLLLPLRPELEPYKHRIAEVYAEVLGVKTVLRKGHIHGETRKPDYELLYGSDTVTVHVENGIKYKLDVAKIMFSPANVKERVRMAKVAKPDELVVDMFAGIGHLSLPIAVYGKAKVIAIEKDPYTFKFLVENIHLNKVEDRMSAYNMDNRDFPGENIADRILMGYVVRTHEFIPKALSIAKDGAIIHYHNTVPEKLMPREPFETFKRITKEYGYDVEKLNELKIKRYAPGVWHVVLDLRVFKS”, the “soluble on expression in E. coli” value was “soluble”. With “MNDISAPEQYDLQTAALKVPPHSIEAEQAVLGGLMLDNNAWERVLDQVSDGDFYRHDHRLIFRAIAKLADQNSPIDVVTLAEQLDKEGQTSQVGGLGYLSELAKNTPSVANIKAYAQIVRARATLRQLIGISTEIADSAFNPEGRTAEEILDEAERQIFQIAEARPKTGGPVSVNDLLTKAIDRIDTLFNSDNAITGLSTGYTDLDEKTSGLQPADLIIVAGRPSMGKTTFAMNLVENAVLRSDKVVLVYSLEMPGESLIMRMLSSLGRIDQTKVRAGRLDDDDWPRLTSAVNLLNDRKLFIDDTAGISPSEMRARTRRIVREHGEIGMIMIDYLQLMQIPGSSGDNRTNEISEISRSLKALAKEFNCPVIALSQLNRSLEQRPNKRPINSDLRESGAIEQDADVIMFVYRDEVYHPETEHKGIAEIIIGKQRNGPIGTTRLAFIGKYTRFENLAPGSYNFDDD” the “soluble on expression in E. coli” value was “not soluble”. With “MTRAEVGLVWAQSTSGVIGRGGDIPWSVPEDLTRFKEVTMGHTVIMGRRTWESLPAKVRPLPGRRNVVVSRRPDFVAEGARVAGSLEAALAYAGSDPAPWVIGGAQIYLLALPHATRCEVTEIEIDLRRDDDDALAPALDDSWVGETGEWLASRSGLRYRFHSYRRD” the “soluble on expression in E. coli” value was “soluble”. For “MILGICGSPRKQATEHVLERALSMLEDDGLETEFFTVRGKNISPCRHCDYCLRNKECVLKDDMFPLYELLRRAAGIIIATPVYNGGVSAQIKAIMDRCRALGAEDYDSLRGKVGMGIAVGGDRCGGQEPALMQIHTFYILNGVIPVSGGSFGANLGACFWSRDTLEVLKRTHMDSKPSKRPWACLKGSWTLKDPEILFYSEFILEHHHHHH”, the “soluble on expression in E. coli” value was “not soluble”. In the case of “MSKLKIAVSDSCPDCFTTQRECIYINESRNIDVAAIVLSLNDVTCGKLDEIDATGYGIPVFIATENQERVPAEYLPRISGVFENCESRREFYGRQLETAASHYETQLRPPFFRALVDYVNQGNSAFDCPGHQGGEFFRRHPAGNQFVEYFGEALFRADLCNADVAMGDLLIHEGAPCIAQQHAAKVFNADKTYFVLNGTSSSNKVVLNALLTPGDLVLFDRNNHKSNHHGALLQAGATPVYLETARNPYGFIGGIDAHCFEESYLRELIAEVAPQRAKEARPFRLAVIQLGTYDGTIYNARQVVDKIGHLCDYILFDSAWVGYEQFIPMMADCSPLLLDLNENDPGILVTQSVHKQQAGFSQTSQIHKKDSHIKGQQRYVPHKRMNNAFMMHASTSPFYPLFAALNINAKMHEGVSGRNMWMDCVVNGINARKLILDNCQHIRPFVPELVDGKPWQSYETAQIAVDLRFFQFVPGEHWHSFEGYAENQYFVDPCKLLLTTPGIDARNGEYEAFGVPATILANFLRENGVVPEKCDLNSILFLLTPAEDMAKLQQLVALLVRFEKLLESDAPLAEVLPSIYKQHEERYAGYTLRQLCQEMHDLYARHNVKQLQKEMFRKEHFPRVSMNPQEANYAYLRGEVELVRLPDAEGRIAAEGALPYPPGVLCVVPGEIWGGAVLRYFSALEEGINLLPGFAPELQGVYIEEHDGRKQVWCYVIKPRDAQSTLLKGEKL”, the “soluble on expression in E. coli” value is reported as “soluble”. For “MMTKNAYAFVVIEESVMVFKRTKDEGLMPIFEGFVPLKEGFLKSFKERCNLEFLENLDLLFLYDKPSAHEIFSLCKELKNSIWDRKLVVALVEALEGFKDWNLSLKIEDKRSNSLGNGTKKLLTNADLGSDYKTIVIDSMKTYHQSQQEKYKRERGETLEVRPTTPPSYGGGSIRISGDKKPDFDEENF”, the “soluble on expression in E. coli” value was “not soluble”. With “MRKICCLLFAVFILCISASCYQRKETRISQPVIMPAIQSPEDIDDYIGEKGYEILESKGKTEEYTLDKKRVYNNWQIWAVQYPEPDHYLGKEISIYSYIIRNHPLDDKSPNKKTYLSVMICENTIIGGYSSPYYEEKDISLVPIGGVYSLEGKNFEEIKNINFDRWRKRFIKKYE” the “soluble on expression in E. coli” value was “not soluble”. In the case of “MGSDKIHHHHHHMLKLKKILADLHVEQAELAEQMAYSQATISQLVNHSVWPKRAARWGLRERILKFLKERGANDDQVATAFEEWTPTRGNASESGSHTPTGGTEDEAMSIRKQILHPNTRRHFKLPGDPFEEVASAEEFYQNEHIRFTRAAMLDAAKRGGFLAVVGESGSGKTTMRRDLQERIERESIQVQVIRPYVVAMEDNDDKGKTLKATHIAEAIMAAVAPHEVLKTSSEARFRQVEKALKESYRTGMRHVVLIEEAHAMPLATLRHLKRFIELEDGFTRLLSVILIGQTELAIKLNPKNATVREVVQRCELITLPPLGQYLEDYLKFRFARLGVQLDQMVTLDGVQAIRSRLQPEAPRGHEERSFLYPLAVHNLLTAAMNLAAENGAPAVSADIVMEAKWN”, the “soluble on expression in E. coli” value is reported as “not soluble”. For “MGSDKIHHHHHHMSNKQHSTTITLPRGTLDLTYQTNAASGNNDLKESSRYQLEDLLDFAQRINPKRAFLFVSKVLGRHIPVAPSTMRDAFTDLANLVPDDLPEPILVIGMAETAVGLSAGVHQALQTRYPQALLLNSTRHAQHDNDNTNNLLTTFSEDHSHASQHLIYQSADKVTQAQLLASKTLIMVDDEASTGNTCVNVVTALRNAGLMQLQQVHLTTLVDWSLNQNQTDAKADDTIASRLPNIDFYRHHLLSGAWKWTDAPNPEPIIMPSVDTTEAGSQALAHTGHWGRFPTLDSTDGFANYLASFQTTFAIFDGQTAFDNAQLPQKILVLGSNEFVWLPFLLAEWLEQNADTVIDNQVIKFSALTRSPIALGGGISTMLSFHDNYGLGMTNFAYNVDPSNWDLIVLCVETSADGVDAMWQDLDNVLIVSPK”, the “soluble on expression in E. coli” value was “not soluble”. For “MGSDKIHHHHHHMSLRPYREIARRKSRQIHVGSVAVGGDAPISVQTMTNTLTTDVKGTLEQIRRAADAGADLVRVSCPDEDSTKAFKQIAKESPVPLIADIHFHYKRGIEAAEAGAACLRINPGNIGSHERVREVVKAAKDHGCSMRIGVNAGSLDKHLLDKYGEPCPEALVESALEHAKLLEDNDFFEFKIAVKASDVFLAVAAYQGLAKACDYPLHLGITEAGGLIGGTVKSSIGIGSLLWQGIGDTLRVSLSADVTEEVKVGFEMLKALDLRHRGVRIVSCPSCARQGFDVIKTVETLENRLSHVRAPVTLSILGCVVNGPGEARETMVGITGGGSDNHKVYIGGSPDHNVDGKSMVDHIVELVEARAAEIEAAKAGGK”, the “soluble on expression in E. coli” value was “not soluble”.

— the DeepSol protein solubility set
